Assays:
[1] = target: Cetuximab (anti-EGFR), full-length IgG; assay: cross-linking
[2] = target: Trastuzumab (anti-Her2/neu), full-length IgG; assay: cross-linking

Substance | percent of IgG labeled with a single SpyCatcher/SpyTag [1] [%] | percent of IgG labeled with a single SpyCatcher/SpyTag [2] [%] | maximum percentage of IgG conjugated to a single pAbBD-SC/ST [1] [%] | maximum percentage of IgG conjugated to a single pAbBD-SC/ST [2] [%]
pAbBD-(GGS)7-SC-(GGS)4-pAbBD (designed binder) | > 70 | > 70 | – | –
pAbBD-(GGS)7-SC-(GGS)7-pAbBD (designed binder) | > 70 | > 70 | – | –
pAbBD-(GGS)7-ST-(GGS)7-pAbBD (designed binder) | > 70 | > 70 | – | –
photoreactive antibody-binding domain fused to SpyTag (designed binder) | – | – | 40 | –
photoreactive antibody-binding domain fused to SpyCatcher (designed binder) | – | – | – | 40
pAbBD-(GGS)7-ST-(GGS)4-pAbBD (designed binder) | > 70 | > 70 | – | –
